Assay results from patent publication US20030170252.

T1: p63^Krsl protein kinase (product of the Krsl gene), endogenous in mouse NIH3T3 cytosolic lysate (S20), Q9JI10
T1 chain: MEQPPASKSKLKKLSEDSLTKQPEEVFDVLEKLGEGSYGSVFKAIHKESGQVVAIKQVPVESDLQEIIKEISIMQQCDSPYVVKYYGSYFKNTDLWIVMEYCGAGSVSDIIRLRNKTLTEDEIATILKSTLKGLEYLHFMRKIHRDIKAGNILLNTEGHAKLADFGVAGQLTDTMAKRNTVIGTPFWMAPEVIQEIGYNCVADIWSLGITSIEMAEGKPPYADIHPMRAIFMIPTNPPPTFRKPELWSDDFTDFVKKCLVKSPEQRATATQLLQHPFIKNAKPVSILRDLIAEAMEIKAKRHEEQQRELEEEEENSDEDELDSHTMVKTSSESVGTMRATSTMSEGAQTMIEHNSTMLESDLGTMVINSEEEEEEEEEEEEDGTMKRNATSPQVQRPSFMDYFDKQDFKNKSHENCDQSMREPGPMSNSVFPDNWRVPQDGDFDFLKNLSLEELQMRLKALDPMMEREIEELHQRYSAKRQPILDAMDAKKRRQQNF


What was measured:
[1] = target: p33^QIK, quiescence induced kinase, 33-kDa Krsl-related cytoplasmic protein kinase, endogenous in mouse NIH3T3 cytosolic lysate (S20)
[2] = target: p35, protein kinase of 35 kDa in STSP-treated NIH3T3 cells
[3] = target: T1, p63^Krsl protein kinase (product of the …)

Protein	kinase activity of p33^QIK in Ab-KQ immune complexes after phosphatase treatment (in-gel kinase assay, MBP substrate) [1]	kinase activity in Ab-KQ immune complexes after caspase-3 treatment (in-gel kinase assay, MBP substrate) [1]	kinase activity in Ab-KQ immune complexes after caspase-3 treatment (in-gel kinase assay, MBP substrate) [2]	kinase activity in Ab-KQ immune complexes after caspase-3 treatment (in-gel kinase assay, MBP substrate) [3]
Lambda protein phosphatase (lambda PPase) (NE BioLabs) (protein) MRYYEKIDGSKYRNIWVVGDLHGCYTNLMNKLDTIGFDNKKDLLISVGDLVDRGAENVECLELITFPWFRAVRGNHEQMMIDGLSERGNVNHWLLNGGGWFFNLDYDKEILAKALAHKADELPLIIELVSKDKKYVICHADYPFDEYEFGKPVDHQQVIWNRERISNSQNGIVKEIKGADTFIFGHTPAVKPLKFANQMYIDTGAVFCGNLTLIQVQGEGA	A similar result was obtained by using Lambda phosphatase in the reaction	–	–	–
Recombinant human Caspase-3 (Alexis Biochemicals) (protein) SGISLDNSYKMDYPEMGLCIIINNKNFHKSTGMTSRSGTDVDAANLRETFRNLKYEVRNKNDLTREEIVELMRDVSKEDHSKRSSFVCVLLSHGEEGIIFGTNGPVDLKKITNFFRGDRCRSLTGKPKLFIIQACRGTELDCGIETDSGVDDDMACHKIPVEADFLYAYSTAPGYYSWRNSKDGSWFIQSLCAMLKQYADKLEFMHILTRVNRKVATEFESFSFDATFHAKKQIPCIVSMLTKELYFYH	–	no change was detected in the kinase activity of p33^QIK which was isolated from osmotic-stressed quiescent cultures (FIG. 8, lanes 6 to 8) or growing cultures	both the kinase activities of p63^Krsl and p35 decreased in correlation with an increased p33^QIK activity that was completely blocked by a wide range caspase inhibitor Z-D-CH2-DCB	both the kinase activities of p63^Krsl and p35 decreased in correlation with an increased p33^QIK activity that was completely blocked by a wide range caspase inhibitor Z-D-CH2-DCB
